According to US20100172925A1, “HLA-A2-RESTRICTED T-CELL EPITOPES OF THE RESPIRATORY SYNCYTIAL VIRUS FUSION PROTEIN AS PEPTIDE-BASED VACCINES” (priority 2009, published 2010):
Entries after “also recorded” stand apart in the source; their conditions may differ. No end group written: not given here.

Legend:
HLA-A*0201 molecules = target: T1, HLA-A*0201 molecules (Homo sapiens, UniProt P04439, D140Y/D185E/D98H/E176V/E277Q/G131W/G231S/I119V/I121R/I166T/I218V/L300P/L318F/N151K/N90K/P208A/P217A/Q86G/Q94H/R138H/R169H/T345S); experiment: T2 cell-stabilization assay (T2-based HLA-A*0201 binding); conditions: T2 cells, peptide 50 μg/mL; for binding affinity higher than the baseline: moderate binding affinity; for mean of fluorescence intensity (MFI) ratio, binding to HLA-A*0201: ratio to negative control (MFI=1)
T1 construct: T2 cell (which expressing HLA-A*0201)-stabilization assay; endogenous in cells; host or cells: T2 cells

[1] = test system: lungs of peptide-immunized mice infected with RSV; experiment: Pathological staining of CD4+ and CD8+ T cells in lungs of peptide-immunized, RSV-infected mice; type: in vivo, mouse
From the text: A recent study has generally questioned the role of CTLs in the pathogenesis of human RSV infection. Very few CD8^+ T cells in the lung infiltrates were found in human infants infected with lethal RSV. Additionally, there was little evidence for T cell cytokines in nasal secretion and few CTL can be recovered by BAL from the infants with bronchiolitis.

[2] = test system: eosinophile count in peripheral blood or lung; type: in vivo, mouse; conditions: peptide-immunized mice challenged with RSV; data not shown
[3] = test system: CD4+ lymphocytes of peptide-immunized HLA-Tg B6 mice; experiment: CD4+ T cell proliferation (CFSE, cell dividing index) in peptide-immunized mice; type: in vivo, mouse; conditions: mice immunized s.c. twice with 50 μg peptide in IFA; 8 days of restimulation by the same peptide
Procedure: (§1) HLA-A2.1 transgenic C57BL/6 mice were anesthetized with isoflurane and primed with 1×10^7 pfu/50 μL of rAd-F0, rAd-LacZ or 1×10^4 live RSV B1 via the intranasal (i.n.) route. Twenty days later, animals were boosted i.n. with the same dose of respective immunogens. For peptide-based vaccination, transgenic mice were immunized subcutaneously (s.c.) with 50 μg of individual synthetic peptides emulsified in 100 μL of incomplete Freund's adjuvant (IFA) and then boosted s.c. with the same dose of respective peptides mixed with IFA one week later. Mice were sacrificed 7 days after the boost. The splenocytes were isolated and stimulated with synthetic CD8 epitope peptides in the presence of 5-(6)-carboxyfluorescein diacetate succinimidyl ester (CFSE) for 4 and 8 days. Proliferated CD4^+ or CD8^+ T cell counts were analyzed by flow cytometry (BD FACSCalibur) using PE-labeled specific antibody against CD4 or CD8, respectively. […]
(§2) To test the immunogenicity of these peptides, HLA-Tg B6 mice were immunized twice with individual IFA-emulsified peptide No. 3, 14, 23, or peptide 17 at day 0 and day 7. […] Proliferated CD4^+ and CD8^+ lymphocytes in response to CD8 epitope were counted by a flow cytometry analysis using specific anti-CD4 and CD8 antibodies conjugated with FITC, respectively. […]

peptide-loaded T2 cells = experiment: Cytotoxicity (CTL) assay, CFSE/7-AAD, splenocytes of peptide-immunized mice against peptide-loaded T2 cells; type: in vivo, mouse; conditions: E:T ratio of 100:1; IFA vehicle background 6.5%
Procedure: A non-radioactive assay of cell-mediated cytotoxicity was performed using green fluorescent probes 5-(6)-carboxyfluorescein diacetate succinimidyl ester (CFSE) to label target cells in combination with 7-amino-actinomycin D (7AAD), a red fluorescent probe to label dead effector and dead target cells. The assay was used to assess the presence of the RSV F protein-specific CTLs in the spleens or lungs of the immunized animals [Russell et al. (2002) “Lymphocyte-mediated cytotoxicity” Annu Rev Immunol 20:323-70]. The assay protocol was in accordance with the manufacturer's instructions (Cayman Chemical, Michigan, USA). […]
The CFSE-labeled target cells were resuspended in the culture medium and incubated at 37° C. of CO2 incubator for 30 minutes. […] The CFSE positive cells were measured in the FL1 channel and 7-AAD stained cells were measured in the FL3 channel. The percentage of CFSE/7-AAD double positive target cells (i.e., T2 cell death) was analyzed.
It has been reported that in primary RSV infection of BALB/c mice, CTLs generated against the F, matrix 2 (M2) and N viral proteins play a protective role in virus clearance. […] A mean background percentage of the killed target cells co-cultured with the control splenocytes isolated from the mouse previously immunized with the vehicle IFA was scored (6.5% at the E:T ratio of 100:1). […]

[4] = test system: CD8+ lymphocytes of peptide-immunized HLA-Tg B6 mice; experiment: CD8+ T cell proliferation (CFSE, cell dividing index) in peptide-immunized mice; type: in vivo, mouse; conditions: mice immunized s.c. twice with 50 μg peptide in IFA; 8 days of restimulation by the same peptide
Procedure: as §1, §2

RSV-B1 = experiment: Viral load in lungs after live RSV-B1 challenge of peptide-immunized mice; type: in vivo, mouse; conditions: two doses of peptide; challenge 10^6 pfu live RSV-B1; 4 days post challenge
Procedure: as §1, with “The splenocytes were isolated and stimulated with synthetic CD8 epitope peptides in the presence of 5-(6)-carboxyfluorescein diacetate succinimidyl ester (CFSE) for 4 and 8 days.” left out
In FIG. 5, mice were immunized via the intranasal route twice with the immunogen as indicated before they were intranasally challenged with 10^6 pfu of live RSV B1. Viral plaques in the lungs of the individual mice were determined 4 days post the challenge using plaque-forming assay as described in the methods. Results were expressed as the plaque number for each mouse. […] 14 and subsequently challenged with 1×10^6 pfu of live RSV-B1 viruses, as compared to 282±116 plaques detected in the lung tissues of mice immunized with the adjuvant IFA alone. […]

[5] = test system: spleen lymphocytes of peptide-immunized HLA-Tg B6 mice; experiment: IFN-γ ELISPOT, peptide-restimulated splenocytes of peptide-immunized mice; type: in vivo, mouse
Procedure: as §1
Following 2 hr of incubation at room temperature, the plate was washed with 200 μL of wash buffer. […] The plates were washed with water, air-dried overnight, and the spots per culture were scored using the immunospot counting reader (C.T.L. IMMUNOSPOT, […] TECHNOLOGY LTD). Results were expressed as the number of cytokine-secreting cells per 5×10^5 splenocytes seeded at culture initiation. […]

For “FLLGVGSAI (F163-171) [compound 6, 9-mer synthetic peptide from the F protein of RSV-B1 strain]”, the “binding affinity higher than the baseline” value (HLA-A*0201 molecules) was 10%.
For AITTILAAV [compound 3], the “infiltrated CD4+ and CD8+ T cells in the lungs” value [1] was “few infiltrated CD4^+ and CD8^+ T cells”.
For “LMSNNVQIV (F296-304) [compound 16, 9-mer synthetic peptide from the F protein of RSV-B1 strain]”, the “mean of fluorescence intensity (MFI) ratio, binding to HLA-A*0201” value (shortened to “mean … (MFI) ratio, binding to HLA-A*0201”) (HLA-A*0201 molecules) was “about 1.5”.
For YMLTNSELL [compound 14], the “infiltrated CD4+ and CD8+ T cells in the lungs” value [1] was “few infiltrated CD4^+ and CD8^+ T cells” and the “eosinophilia (eosinophile count in peripheral blood or lung)” value [2] was “absence of pulmonary eosinophilia”.
For VILLSLIAV [compound 23], the “infiltrated CD4+ and CD8+ T cells in the lungs” value [1] was “more infiltrated CD4^+ and CD8^+ T cells; also recorded: severe CD8^+ lymphocytic inflammation” and the “eosinophilia (eosinophile count in peripheral blood or lung)” value [2] was “not eosinophilia”.
“KVLDLKNYI (F214-222) [compound 13, 9-mer synthetic peptide from the F protein of RSV-B1 strain]” was tested, and the “CD4+ cell proliferation” value [3] was “did not manifest cell proliferation”, the “percentage of killed target cells (CFSE and 7-AAD double positive T2 cells), CTL response” value (peptide-loaded T2 cells) was 15.4% and the “binding activity to HLA-A*0201 molecules (in words)” value (HLA-A*0201 molecules) was “strong binding activity”. For the same sequence, the “binding affinity higher than the baseline” value (HLA-A*0201 molecules) was 10%, the “CD8+ lymphocyte proliferation” value [4] was “did not elicit CD8^+ lymphocyte proliferation” and the “protection against live RSV challenge (lung viral plaques, in words)” value (RSV-B1) was “not protected”. For the same sequence, the “IFN-γ level (ELISPOT, in words)” value [5] was “background level of IFN-γ”.
In the case of “SLIAVGLLL (F563-571) [compound 25, 9-mer synthetic peptide from the F protein of RSV-B1 strain]”, the “binding affinity higher than the baseline” value (HLA-A*0201 molecules) is reported as 10%.
For “SVGNTLYYV (F474-482) [compound 18, 9-mer synthetic peptide from the F protein of RSV-B1 strain]”, the “binding affinity higher than the baseline” value (HLA-A*0201 molecules) was 10%.
In the case of “KLMSNNVQI (F295-303) [compound 15, 9-mer synthetic peptide from the F protein of RSV-B1 strain]”, the “mean … (MFI) ratio, binding to HLA-A*0201” value (HLA-A*0201 molecules) is reported as “about 1.5”.
With “ALLSTNKAV (F193-201) [compound 8, 9-mer synthetic peptide from the F protein of RSV-B1 strain]” the “binding affinity higher than the baseline” value (HLA-A*0201 molecules) was 10%.
In the case of “LLSTNKAVV (F194-202) [compound 9, 9-mer synthetic peptide from the F protein of RSV-B1 strain]”, the “mean … (MFI) ratio, binding to HLA-A*0201” value (HLA-A*0201 molecules) is reported as “about 1.5”.
With “TLLLWVLLL (F5-13) [compound 1, 9-mer synthetic peptide from the F protein of RSV-B1 strain]” the “binding affinity higher than the baseline” value (HLA-A*0201 molecules) was 10%.
In the case of KIMTSKTDV [compound 17], the “infiltrated CD4+ and CD8+ T cells in the lungs” value [1] is reported as “few infiltrated CD4^+ and CD8^+ T cells”.
“LLSLIAVGL (F561-569) [compound 24, 9-mer synthetic peptide from the F protein of RSV-B1 strain]” was tested, and the “mean … (MFI) ratio, binding to HLA-A*0201” value (HLA-A*0201 molecules) was “about 1.5”.
